Assay [1] has as its target human BAFF-R (B cell-activating factor receptor) expressed on cells (human) (UniProt Q96RJ3). The assay is described as follows: cell-based or functional assay.
The target is the same in assay [2]. Description: BAFF-biotin blocking, flow cytometry, hBAFF-R CHO cells; competitor BAFF-biotin.
Assay [3] concerns the target poly-specificity reagent (PSR): detergent solubilized CHO cell membrane proteins. Description: flow cytometry PSR assay: test article captured on protein A beads, biotinylated PSR detected with streptavidin-PE, anti-human Fc for expression; control panel without PSR (FIG. 71D) prints Q2 0.019. Background: A flow cytometer gives signals particle by particle.
For assay [4] the target is unchanged. The assay is described as follows: flow cytometry PSR assay: test article on Protein A coated beads, biotinylated PSR, read-out with SA-PE.
Assay [5] has the same target. The assay is described as follows: PSR assay: molecule on protein A beads, biotinylated PSR, SA-PE read out by flow cytometry; + PSR panel.
For assay [6] the target is unchanged. The assay is described as follows: flow cytometry PSR assay: test article captured on protein A beads, biotinylated PSR detected with streptavidin-PE, anti-human Fc for expression; control panel without PSR (FIG. 71C) prints Q2 0.020.

The values that follow come from patent publication US20240270861A1.

In assay [1], “F3′ isotype control (F3′-palivizumab) (bispecific antibody)” displayed a KHYG-1-CD16a cytotoxicity on BJAB cells, Max killing (%) of 48%.
In assay [2], Human IgG1k (antibody) returned a Minimum (MFI) of 68000 MFI.
With “Ixekizumab (PSR positive control) (antibody)”, the events in quadrant Q2 (Expression-FITC positive, Binding-PE positive), + PSR in assay [3] was 79.6%.
For Ixekizumab (antibody), in assay [4], the percent of events in Q2 (Expression-FITC positive, Binding-PE positive), + PSR amounted to 79.6%.
Turning to Ixekuzumab (antibody), the % of events in quadrant Q2 (PSR binding+) in assay [5] turned out to be 27.1%.
Regarding Rituximab (antibody), the percent of events in Q2 (Expression-FITC positive, Binding-PE positive), + PSR in assay [4] came out at 56.2%.
Take trastuzumab (antibody): the percent of events in Q2 (Expression-FITC positive, Binding-PE positive), + PSR in assay [4] stood at 0.087%. The events in quadrant Q2 (Expression-FITC positive, Binding-PE positive), + PSR in assay [6] came to 0.067%.
